# Where two headings read alike, the source gives them in different places.
# Substrate: NCCc1cc2oc(=O)ccc2cc1N
# Assay: purified protein, by the assay type
protein,measurement,setting,value
MAO-B (Bos taurus) (protein) MSSKCDVVVVGGGISGMAAAKLLHDSGLNVIVLEARDRVGGRTYTLRNQKVKYVDLGGSYVGPTQNHILRLSKELGLETYKVNEVERLIHHTKGKSYPFRGSFPSVWNPITYLDHNNLWRTMDDMGREIPSDAPWKAPLAEQWDLMTMKELLDKICWTESSKQLAILFVNLCVTAEIHEVSALWFLWYVKQCGGTTRIFSTSNGGQERKFVGGSGQVSERIMDLLGDRVKLERPVIHIDQTGENVLVETLNHELYEAKYVISAVPPVLGMKIHFNPPLPMMRNQLITRVPLGSVIKSIVYYKEPFWRNMDYCGSMIIEGEEAPVAYALDDTKPDGSYPAIIGFILAHKARKLARLTKEERLKKLCDLYAKVLGSQEALHPVHYEEKNWCEEQYSGGCYTSYFPPGIMTQYGRVLRQPVGRIYFAGTETATHWSGYMEGAVEAGERAAREILHAMGKIPEDEIWLPEPESVDVPAKPITTTFLQRHLPSVPGLLKLIGLTTIFSATALGFLAHKRGLLVRI,Km,,510 ± 40 µM
same,Km,pH 7.4,13 µM
MAO-A (Homo sapiens) (protein) MENQEKASIAGHMFDVVVIGGGISGLSAAKLLTEYGVSVLVLEARDRVGGRTYTIRNEHVDYVDVGGAYVGPTQNRILRLSKELGIETYKVNVSERLVQYVKGKTYPFRGAFPPVWNPIAYLDYNNLWRTIDNMGKEIPTDAPWEAQHADKWDKMTMKELIDKICWTKTARRFAYLFVNINVTSEPHEVSALWFLWYVKQCGGTTRIFSVTNGGQERKFVGGSGQVSERIMDLLGDQVKLNHPVTHVDQSSDNIIIETLNHEHYECKYVINAIPPTLTAKIHFRPELPAERNQLIQRLPMGAVIKCMMYYKEAFWKKKDYCGCMIIEDEDAPISITLDDTKPDGSLPAIMGFILARKADRLAKLHKEIRKKKICELYAKVLGSQEALHPVHYEEKNWCEEQYSGGCYTAYFPPGIMTQYGRVIRQPVGRIFFAGTETATKWSGYMEGAVEAGERAAREVLNGLGKVTEKDIWVQEPESKDVPAVEITHTFWERNLPSVSGLLKIIGFSTSVTALGFVLYKYKLLPRS,Km,,30.9 ± 1.8 µM
same,Km,pH 7.4,31 µM

# — patent publication US20080194522A1, “Development of Fluorogenic Substrates For Monoamine Oxidases (Mao-A and Mao-B)” (priority 2004, published 2008)
